According to US11879149B2, “Quantification method of ethanolamine phosphate, oxidoreductase for quantification, composition for quantification, kit for quantification and sensor for quantification” (KIKKOMAN CORPORATION, priority 2018, dated 2024):

B1: LcAOX: amine oxidase derived from Lichtheimia corymbifera, GenBank ID CDH56199.1, SEQ ID NO: 15 (protein, listed as Lichtheimia corymbifera)
chain: MSSSSSATPKPHPLDPLSADEIRRAAAIIREKRGQDTSYVFNSLTLKEPAKQQMMLYLGWVNSSSQPKPVTIDREVFAVLIDRPSGLVHEMTVNLDKSAVTSWNKVEGRQPTINIFEMLEAEREILKDERVKDQCRQLGITDMSMVYADPWGVGYHEIKGKRLVQALLYARTSPDDNQYAHPLDFNPLYDLNAKKVLDIVVSKRRNSSFERPVIPMANHHFLPEHLGEDRLRKDIKPIEITQPQGVSFSIRDGHQLHWQKWDMHLSFNYREGLVINNLSYRDMDSTVRPIIYRMSLAEMVVPYANPYKPYNHKMAFDVGEYGLGNLTNSLELGCDCVGKIGYLDAVLSDLNGDPWHIPNAICIHEEDTGLLFKHSDYRTGKAHSARSRRLVISHIVTAANYDYGLYYYFYQDGTIQYEVKATGELNTQVLAEDEDAAPYGTIVAPQVDAQHHQHLFSMRIDPMLDGPNNSVAEVDVVASDLPVGHPHNSVGNSFYPVTKVFNTTDEAKTMASVERHRTWKIINESKIHPYAKQPVGFKMMAHPTPPLLPKPGSIVYERAMFASKTLWVTPHNDKQLYPGGFYCYQSEPSENLGLPQWTKETQNVRDTDIVCWLNFGITHIPRVEDFPIMPIETCGIMLKPANFFLCNPGIDIPPSTRQSTKSAYANDATCCRKNNL
B2: LrHP: hypothetical protein derived from Lichtheimia ramosa, GenBank ID CDS02610.1, SEQ ID NO: 20 (protein, listed as Lichtheimia ramosa)
chain: MSSSPIKPYPLDPLTADEIRRAAALIRETRGQDTTYVFNSLTLKEPSKQQMMSYLGWTNSPSHPKPVTIDREVFAVLIDRPSGLVHEMTVNLDKNQVTRWNKVEGRQPTVNVFEMLEAEREILKDERVKEQCRQLGINDMSMVFADPWGVGYHEIKGKRLVQALMYARTSPDDNQYAHPLDFNPLYDVNAKKVIDIIVSKRRNSSFDRPVIPMANHHFLPEHLGQDRLRKDIKPIEITQPQGVSFSIRDGHQLHWQKWDMHLSFNYREGLVINNLSYRDMDGTVRPIIYRMSLSEMVVPYANPYKPYNHKMAFDVGEYGLGNLTNSLELGCDCVGKICYLDATLSDLNGDPWQIPNAICIHEEDTGLLFKHTDYRTGKAHSARSRRLVISHIVTAANYDYGLYYYFYQDGTIQYEVKATGELNTQVLAADEDAAPYGTIVAPQVDAQHHQHLFSMRIDPMVDGPNNSVAEVDVVASDLPVGHPHNSIGNSFYPVTKVFNTTDEAKTMASIERHRSWKIINENKIHPYAKQPVGFKMMAHPTPPLLPKPGSIVYERAMFASKTLWVTPYNEEQRYPGGFYCYQSEPSENLGLPQWTKETQNVRDTDIVCWLNFGITHIPRVEDFPIMPIETCGVMLKPVNFFLGNPGIDIPPSTRQSTKSAYATEATCCRKNNL
B3: SrAOX3925: amine oxidase derived from Syncephalastrum racemosum, GenBank ID ORZ03925.1, SEQ ID NO: 25 (protein, listed as Syncephalastrum racemosum)
chain: MTIVSPSHPLDPLTPSEIRHVAEIVRATRSPDDKTPRDYIFSSICLKEPHKDKTLAYLQSVSEEAAALMPEREALVILIDRPSGLVHEILVSITDEKVKSAKTLKNVQPTQHVLEMIEAEKIITKDPSVIEECRKLGITDMKNVYADPWTVGYHAQFKSSKRLMQALMYMRTSPDDNQYAHPLDFVPIYDVNAQKVVEILRQETSEASKYDRPTVPLENHQFLPEHIGVENLRKDIKPIEITQPEGVSFTVRGREIEWQNWSMHVGFNYREGVIINNVSYKDKGNVRPLFYRVSVSEMVVPYAHPKEPFNHKMAFDVGEYGLGNLTNSLELGCDCLGSIYYMDGVCNNLDGEPWVIPNAICIHEEDTGLLFKHTDYRTDKAHSARSRRLVISQIVTAANYDYGLYFYFYQDGTFQYEVKATGELNTQVFAEDENPAPYGTAVAPQVVGQHHQHLFMMRIDPMLDGRLNSVAQVDVLPSEYPVGHVENPIGNAFSPITTIYSDTTEAQAHGNLESSRTWKIINESKLHPYTKEPVGYKLVSPNTPPMLPKPGSLVYERAKFATKTIWVTPYDPDQIYPAGFYCSQSPGDDSMGLPAWTKEPQSVRGRDVVVWLTFGLTHIPRVEDFPVMPVETCGWALKACNFFLGNPGIDIPAAQKGTSKRVNGACCA
B4: LaTDH: large subunit of taurine dehydrogenase from Paracoccus denitrificans, amino acid sequence SEQ ID NO: 1, expressed in E. coli (protein)
chain: MQAIEKRAGALPYDPLYDPVTARGLGPRSDYAPTYWIGTAGAPPPDDGPVTGDMDADVVVIGSGYTGLSCALHLAKMHGIKAVVLEANGVAYGCSTRNGGQAQVSSGRLKRSQWIERWGLDVARRLHAEVCEGFDLFRGLIRDHAIDCDPQDGGHYYIAHKASAMPALEKETALLRDTFGYDARMISRDELHETVARDQEAHGAMWEADGVGIHAAKLAFGYLRAARELGARVHVDSPVQGWEYRNGVHHLRTPGGTVRARRVAVATAAYAPRSLHPRLRDRLMPIMSNSIVTRVLTPAELEAVGIRKLSPLTDTRTLRHYYRLLPDNRLQIGSRAAITGRDAANPAHLDALREGMARKFPALRGIALDYSWWGWVDVSHDMMPRITGLPDLPGAFYALGYGGNGVMYSAMAGRRMAQLVAGEAVPDLPIFNNELPHEGWRTPFRRLGQWGLYKFYHYRDERR
modifications: Paracoccus denitrificans
B5: SrEAOX: ethanolamine oxidase derived from Syncephalastrum racemosum, GenBank ID BAU20376.1, SEQ ID NO: 35 (protein, listed as Syncephalastrum racemosum)
chain: MTLPTTIHPLDPLSPEEIRHVSEIIRKQRAADETTYIFNSIALREPPKEQILAHFGWTDGPKPVQIDRQAFAVLIDRPSGLVHEIIVSITTASIVSWETKEGVQPTLHVQEMLEAEQVMLKDERVIEECRKLGIEDMSMVFADTWGVGWHKTKGKRLMQALMYMRTSPDDNQYAHPLDFTPLYDVNEQKVIDVLVAKRRNSKFERPVIPRADRQFLPEHLGEENLRKDIKPIEITQPQGVSFQIRGHEIDWQKWNLHVGFNYREGLVINNVSYKDMDGTVRPMFYRVSLAEMVVPYANPYEPYNHKMAFDVGEYGLGNLTNSLELGCDCVGSIFYMDGVCSDIKGDAWVIPNAICIHEEDTGLLFKHTDFRNNKAHSARSRRLVISHIVTAANYDYGLYYYFYQDGTFQYEVKATGELNTHVLAEDEDPAPYGTIVAPQVDAQHHQHLFSMRIDPMVDGPTNSVAQVDVVASDLPVGHPDNAVGNAFSPVTTIYADTDEARARANGETSRYWKIINETRIHPYTKEPVGFKLMCPNTPPMLPKPGSIAYERAVFASNTVWVTPYDAEQLFPGGFYCYQSDPADRLGLPEWTREKKDVKNKDIVLWLTFGLTHIPRVEDFPIMPVETCGFMLKPCNFFLANPGIDIPASDRHSSKSAYAPAVANGEYGITNGTTNGSSCCSKGH
B6: SrAOX3926: amine oxidase derived from Syncephalastrum racemosum, GenBank ID ORZ03926.1, SEQ ID NO: 30 (protein, listed as Syncephalastrum racemosum)
chain: MTVSAVIHPLDPLSPEEIRHASAIIRRERSADKTIFIFNSISLREPPKDQVLAHFGWAAGPKPAQIDRQAFVVLIDRPSGLVHEIIVSLTTSSVVSWNRKQGVQPTLHVQEMLEAEEVMLKDERVIEECRKLGIEDMSLVFADTWGVGWHKTKGKRLMQALMYMRTSPDDNQYAHPLDFTPLYDVNEQKVIDVLVAKRRNSKFERPVIPRADHQFLPEHLGEGNLRKDIKPIEIIQPEGVSFQIRGHEIDWQKWNLHIGFNYREGLVISNVSYKDMDGTVRPVFYRVSLAEMVVPYANPYEPYNHKMAFDVGEYGLGNLTNSLELGCDCVGSIFYMDGVCSDLKGDAWVIPNAICIHEEDTGLLFKHTDFRNNKAHSARSRRLVISHIVTAANYDYGLYYYFYQDGTFQYEVKATGELNTHVLAEDENPAPYGTIVAPQIDAQHHQHLFSMRIDPMVDGPTNSVAQVDVVASDLPVGHPDNAVGNAFSPITTIYANTDEAQARANGETSRYWKIINEDKIHPYTREPVGFKLMCPNTPPMLPKPGSIAYERAVFASKTVWVTPYDAEQLFPGGFYCYQSDPADRLGLPEWTKGKKDVKNKDIVLWLTFGLTHIPRVEDFPIMPVETCGFMLKPCNFFLANPGIDIPASDKHSTKSAYAHALTNGANGTGNGSTNGSSCCNKNY

What was measured:
Type in all cases: biochemical
[1] = Oxidase activity measurement of LcAOX, LrHP, SrAOX3925, SrAOX3926, SrEAOX (4-AA/TOOS/POD, A555); conditions: pH 7.5; for oxidase activity of the crude enzymatic solution against EAP: crude enzyme solution, 50 mM EAP final; for oxidase activity of the crude enzymatic solution against EAP / oxidase activity against EAP after being purified: 37° C.; for oxidase activity against EAP after being purified: purified preparation
Method: Oxidase activity was measured for LcAOX, LrHP, SrAOX3925, SrAOX3926, SrEAOX expressed by the methods described above. After incubating 580 μl of a reagent consisting of the composition of Table 12 at 37° C. for 5 minutes, 20 μl of a substrate solution (1500 mM EAP) was added and mixed, and the amount of change at A555 (ΔAS) per 1 minute at 37° C. was measured using the spectrophotometer (U-3900, manufactured by Hitachi High-Tech Science Corporation). Subsequently, 20 μl of ion-exchanged water was added instead of the substrate solution and mixed, and the amount of change at A555 (ΔA0) per 1 minute at 37° C. was measured.
The oxidase activity was calculated based on the following formula: Oxidase activity (U/ml)=(ΔAS−ΔA0)×600.0×df/(39.2×0.5×x)=30.6×(ΔAS−ΔA0)×df/x • 39.2: Millimolar extinction coefficient (mM^−1cm^−1) of 4-AA-TOOS Condensation dye for 555 nm-wavelength light • df: Dilution rate of enzyme solution (Quantification of EAP by LrHP)

[2] = Quantification of EAP by LrHP by electrochemical methods (chronoamperometry); conditions: +600 mV (Ag/AgCl); 0 μM to 1400 μM and 0 μM to 170 μM EAP; FIG. 6, FIG. 7
Method: 20 μl of 150 mM Bicine-NaOH buffer solution (pH 7.5), 15 μl of 1.5 M potassium chloride solution, and 5 μl of LrHP solution (0.14 U/ml) were applied and mixed on a SCREEN-PRINTED ELECTRODES (manufactured by DropSens, Product Number DRP-C110). A dedicated connector (DRP-CAC) was then used to connect to ALS electrochemical analyzer 814D. Chronoamperometric measurements were performed at +600 mV (Ag/AgCl). Subsequently, 2 μl of EAP solution at each concentration was added, and the current value at 100 seconds after the initiation of measurement was recorded. Similar experiments were carried out using 5 μl of ultrapure water (ion-exchanged water) instead of LrHP solution as a control experiment.

[3] = Evaluation of substrate specificity of crude enzyme solution (PMS/DCIP, 96-well plate); conditions: 5 mM substrate, potassium phosphate buffer pH 8.0, PMS
Method: An activity measurement using 2, 6-Dichlorophenolindophenol (DCIP) was performed in a 96-well plate. […] As the substrate, taurine (manufactured by Fujifilm Wako Pure Chemical Corporation), ethanolamine phosphate (EAP, manufactured by Fujifilm Wako Pure Chemical Corporation), ethanolamine (manufactured by Tokyo Chemical Industry, Co., Ltd.), and benzylamine (manufactured by Tokyo Chemical Industry Co., Ltd.) were used.

Molecule	oxidase activity of the crude enzymatic solution against EAP [1] [U/L]	oxidase activity against EAP after being purified [1] [U/ml]	also measured
B1	1.8	0.11	
B2	5.8	0.31	current value at 100 seconds after the initiation of measurement with increasing EAP [2]: current value also increased; oxidase activity of purified LrHP solution used in the quantification reagent ([1]; final concentration of 50 mM EAP): 0.14 U/ml (*purified LrHP solutions)
B3	2.6	0.16	
B4			degree of loss of blue color derived from DCIP (dehydrogenase activity), substrate benzylamine [3]: did not react; degree of loss of blue color derived from DCIP (dehydrogenase activity), substrate ethanolamine [3]: did not react; degree of loss of blue color derived from DCIP (dehydrogenase activity), substrate ethanolamine phosphate [3]: also reacted; degree of loss of blue color derived from DCIP (dehydrogenase activity), substrate taurine [3]: reacted most
B5	16		
B6	0.2		
